In article PMC2761383, “Structural and functional characteristics of xenavidin, the first frog avidin from Xenopus tropicalis” (BMC Structural Biology, 2009):

Experiments:
[1] = target: xenavidin (Xenopus tropicalis); assay: SEC; Superdex 200 10/300 GL, 50 mM sodium phosphate pH 7.0, 650 mM NaCl; samples with and without an excess of biotin
[2] = target: xenavidin (Xenopus tropicalis); assay: crystal structure; sitting-drop vapour diffusion at 22°C, with and without D-biotin; space group R32, dimer in the asymmetric unit; 1.7 Å
[3] = target: xenavidin, acetylated in vitro (Xenopus tropicalis); assay: SDS-PAGE thermostability assay; acetylated protein saturated with biotin, thermal treatment for 20 min in the presence of SDS and 2-mercaptoethanol, SDS-PAGE with Coomassie staining

stoichiometry N [1] | stoichiometry N [2] | stoichiometry N [3] | Substance
4 | 4 | – | xenavidin (natural protein)
– | – | 4 | xenavidin, acetylated in vitro (natural protein)
